Laboratory results reported in the nanobody polyreactivity screen of Harvey et al. (2022).

Test: yeast display, Sf9 membrane polyspecificity reagent, FACS + sequencing; frameworks hold sequencing errors
In short: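 Genes from sorted yeast were amplified by colony PCR, read by MiSeq 2 × 250 sequencing and filtered on CDR length. These cells carried a synthetic nanobody library in Saccharomyces cerevisiae BJ5465 and were sorted by FACS into low and high (top ~1%) gates on anti-HA and streptavidin fluorescence. Polyreactivity is labelled according to the gate of origin.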

Row | Sequence | polyreactivity (PSR sort gate)
1 | QVQLVESGGGLVQAGGSLRLSCAASGFIFPKNAMGWYRQAPGKERELVAAISKRGGSTYYADSVKGRFTISRDNAKNTVYLQMNSLKPEDTAVYYCADGYRTRRGLGYYYWGQGTQVTVSS | high polyreactivity
2 | QVQLVESGGGLVQAGGSLRLSCAASGFIFPLYTMGWYRQAPGKEREVVAAISWIGGRTYYADSVKGRFTISRDFAKNTVYLQMISLKPEDTAVYFCGKDPSGGGYGYDYWGQGTQVTVTS | low polyreactivity
3 | QVQLVESGGGLVQAGGSLRLSCAASGFIFPNYAMGWYRQAPGKVRELVAAISVRGGNTYYADSVKGRFTISRDNAKNTVYLQMNSLKPEDTAVYYCNAVLRSGYFPEYYYWGQVTQVTVSS | high polyreactivity
4 | QVQLVESGGGLVQAGGSLRLSCAASGFIFPQYAMGWYRQAPGKERELVAAISWSGTRTYYADSVKGRFTISRDNAKNTVYLQMNSLKPEDTAVYYCAARIDRQYRWTGFGYWGQGTQVTVSS | high polyreactivity
5 | QVQLVESGGGLVQAGGSLRLSCAASGFIFPRYAMGWYRQAPGKERELVAAISYSGGSTYYADSVKGRFTISRDNAKNTVYLQMNSLKPEDTAVYYCAARLFKDSWMDYWGQGTQVTVSS | high polyreactivity
6 | QVQLVESGGGLVQAGGSLRLSCAASGFIFPRYAMGWYRQAPGQERELVAAISKSGGRTYYADSGKGRFTISRDYAKNTFYLQMNSLNPEDTAVYYCAAGRISRFSRYYYWGQGTQVTVSS | high polyreactivity
7 | QVQLVESGGGLVQAGGSLRLSCAASGFIFPRYAMGWYRQAPGTERELVAAISRGGRTNYADSVKGRFTISRDNAKNTVYFQMNSLKPEDTAVYYCAKKYYLSGSRADDSWGQGTQVTVSS | high polyreactivity
8 | QVQLVESGGGLVQAGGSLRLSCAASGFIFPTYAMGWYRQATGKERELVAAISYRGGITSYADSVKGRFTISRDNAKNTVYLQMNSLKPEDSAVYYCAARGAWGYEYWGQGTQVTVSS | low polyreactivity
9 | QVQLVESGGGLVQAGGSLRLSCAASGFIFPVNAMGWYRQAPGKERELVAGISRGGRTNYADSVKGRFTISRDNAKYSVYLQMNSLKPEDTAVYYCAAESYRAYKYDSWGQGTQVTVSS | low polyreactivity
10 | QVQLVESGGGLVQAGGSLRLSCAASGFIFPVYAMGWYRQAPGKERELVAAIRRGGSTNYADSVKGRFTISRDNAKNTVYLQMNSLKPEDTAVYYCAVEYQSPDDYWGQGTQVTVSS | low polyreactivity
11 | QVQLVESGGGLVQAGGSLRLSCAASGFIFPWNAMGWYRQAPGKERELVAAISFSGGSTYYADSVKGRFTISRDNAKNTVYLQMNSLKPEDTAVYYCAKRTWDLRRTRHYYWGQGTQVTVSS | low polyreactivity
12 | QVQLVESGGGLVQAGGSLRLSCAASGFIFPWYTMGWYRQAPGKERELVAVINQSGGSTYYADSVKGRFTISRDNAKNPVYLQMNSLKPEDTAVDYCAAKSYYSWGQGTQVTVSS | high polyreactivity
13 | QVQLVESGGGLVQAGGSLRLSCAASGFIFPYNAMGWYRQAPGKDRELVAAISWSGSNTYYADSVNGRFTISRDNAMNTVYLQMNSLKPEDTAVYYCAARHSVYYFVQRNGRYGYWGQGTQVTVSW | high polyreactivity
14 | QVQLVESGGGLVQAGGSLRLSCAASGFIFPYNAMGWYRQAPGKERELVAGITSSGGGTYYADSVKGRFTISRDNAKNTVYLQMNSLKPEDTAVYYCNKVWSYHLYPYDYWGQGTQVTVSS | high polyreactivity
15 | QVQLVESGGGLVQAGGSLRLSCAASGFIFPYNAMGWYRQAPGKERELVAVISSSGGDTYYADSVKGRFTISRDNAKNTVYLQMNSLKPEDTAVYYCAADSYYGYEYWGQGTQVTVSS | low polyreactivity
16 | QVQLVESGGGLVQAGGSLRLSCAASGFIFPYYAMGWYRPAPGKERELVAAITSSGGSTYYADSVKGRFTISRDNAKNTVYLQMNSLKPEDTAVYYFNAYVRRTRVYDYWGQGTLVTVSS | high polyreactivity
17 | QVQLVESGGGLVQAGGSLRLSCAASGFIFPYYAMGWYRQAPGKERELVAAITSSGGSTYYADSVKGRFTISRDTAKNTVYLQMTSLKPEDNAVYYCNAYVRRTRDYDYWGQGTQVTVSS | high polyreactivity
18 | QVQLVESGGGLVQAGGSLRLSCAASGFIFQANAMGWYRQAHGKERELVAAIRSGDRTYYADSVKGRFTISRDNAKNTVYLQMNSLKPEDTAVYYCAAFYHHYYRYDYWGQGTQVTVSS | low polyreactivity
19 | QVQLVESGGGLVQAGGSLRLSCAASGFIFQAYAMGWYRQAPGKERELVASISYSGSRTYYADSVKGRFTISRDNAKNTVYLQMNSLKPEDTAVYYCAAGPRYWAPWFGRDYEYWGQGTQVTVSS | high polyreactivity
20 | QVQLVESGGGLVQAGGSLRLSCAASGFIFQGYVMGWYRQAPGKEREFVAAISRSGGTTFYADSVKGRFTISRDNAKNTVYLQMNSLKPEDTAVYYCNRARLGRPGYDYWGQGTQVTVSS | high polyreactivity
21 | QVQLVESGGGLVQAGGSLRLSCAASGFIFQRNAMGWYRQAPGKERELVAAISWTGGSTYYADSVKGRFTISRDNAKNTVYLQMNSLKPDVTAVYYCAKYGSGPYGYWGQGTQVTVSS | high polyreactivity
22 | QVQLVESGGGLVQAGGSLRLSCAASGFIFRAYAKRWYRPAPGKERELFAALTKRSGTTYSADSVKRRFTISRDNAKNTVYVQMNSLKPEDTAVYFCAAKTLYNSGTQDRAMGYWGQGTQVTVSS | high polyreactivity

Row | Sequence | polyreactivity (PSR sort gate)
23 | QVQLVESGGGLVQAGGSLRLSCAASGFIFRDNAMGWYRQAPGKERELVAAISKSGGRTYYADSVKGRFTISRDNAKNTVYLLMNSLKPEDTAVYYCAADTYYNLGNYWGQGTQVTVSS | high polyreactivity
24 | QVQLVESGGGLVQAGGSLRLSCAASGFIFRDNAMGWYRQAPGKERELVAASSSRGGSTYYADSVKGRFTISRDNAKNTVYLQMNSLKPEDTAVYYCAKRPYKYRVQLDSWGPGTQVTVSS | high polyreactivity
25 | QVQLVESGGGLVQAGGSLRLSCAASGFIFRFNAMGWYRQAPGKERELVAGITWSGGSTYYADSVKGRFTISRDNAKNTVYLQMNSLKPEDTAVYYCAADNPYLGRKFDYWGQGTQVTVSS | high polyreactivity
26 | QVQLVESGGGLVQAGGSLRLSCAASGFIFRGNGMGWYRQAPGNERELVAAISKSGGRTYYADSVKGRFTISRDNAKNTVYLQMNSLKPEDTAVYYCNARRFWRGDYWGQGTQVTVSS | high polyreactivity
27 | QVQLVESGGGLVQAGGSLRLSCAASGFIFRGYAMGWYRQAPGKERELVAAISRRGGSTYYADSVKGRFTISRDNAKNTVYLQMNSLKPEDTAVYYCNARIRYVYWHSYDYWGQGTQVTVSS | high polyreactivity
28 | QVQLVESGGGLVQAGGSLRLSCAASGFIFRGYAMGWYRQAPGKERELVAAITGGGGRTYYADSVKGRFTISRDNAKNTVYLQMNSLKPEDTAVYYCARRFAYSFDYGYWGQGTQVTVSS | high polyreactivity
29 | QVQLVESGGGLVQAGGSLRLSCAASGFIFRKYAMGWYRQAPGKERELVAAIRQRGGTTYYADSVKGRFTISRDNAKNTVYLQMNSLKPEDTAVYYCAAPYSSAYKYDYWGQGTQVTVSS | high polyreactivity
30 | QVQLVESGGGLVQAGGSLRLSCAASGFIFRKYAMGWYRQAPGTERELVAAIRQRGGTTYYADSVKGRFTISRDNAKNTVSLQMNSLKPEDTAVNYCAAPYSSAYKYDYWGQGTQVTVSS | high polyreactivity
31 | QVQLVESGGGLVQAGGSLRLSCAASGFIFRLNTMGWYRQAPGKERELVATISSGGSTNYADSVKGRFTISRDNAKITVYLQMNSLKPEDTAVYYCAKKKTRYGGSYNYWGQGTQVTVSS | high polyreactivity
32 | QVQLVESGGGLVQAGGSLRLSCAASGFIFRLYDMVRYRQAPGKERELVAAISSGGRTNYADSVKGRFTISSDNPKNTVYLQMNSLKPEDTAVYYCAARSIFGYRSYGYWGQGTQVTVSS | high polyreactivity
33 | QVQLVESGGGLVQAGGSLRLSCAASGFIFRPYVMGWYRQAPGKERELVAAISRSGSSTYYADSVKGRFTISRDNAKNTVYLQMNSLKPEDTAVYYCNAVYYLYKGDYWGQGTQVTVSS | high polyreactivity
34 | QVQLVESGGGLVQAGGSLRLSCAASGFIFRRNTMGWYRQAPGKERELVAVITWSGGRTYYADSVKGRFTISRDNAKNTVYLQMNSLKPEDTAVYDCTAEQWWSLDYWGQGTQVTVSS | low polyreactivity
35 | QVQLVESGGGLVQAGGSLRLSCAASGFIFRRYAMGWYRQAPGKERELVAAIRWDDGNTYYADSVKGRFTISRDNAKNTVYLQMNSLKPEDTAVYYCYADKWSSTDDWLYDYWGQGTQVTVSS | low polyreactivity
36 | QVQLVESGGGLVQAGGSLRLSCAASGFIFRRYAMGWYRQAPGKERELVAAISSGGRTYYADSVKGRFTISRDNAKNTVYLQMNSLKPEDTAVYYCAAYSPYLRSWYDYWGQGTQVTVSS | high polyreactivity
37 | QVQLVESGGGLVQAGGSLRLSCAASGFIFRRYAMGWYRQAPGKERELVAAITRSGGSTYYADSVKGRFTISRDNAKNTVYLQMNSLKPEDTAVYYCAAPYFGANGKPEYGYWGQGTQVTVSS | high polyreactivity
38 | QVQLVESGGGLVQAGGSLRLSCAASGFIFRRYAMGWYRQAPGKERELVAAITRSGGSTYYADSVKGRFTISRDTSKNTVYLQMNSLNPEDTAVYYCATKSSGPVLGYGYDYWGQGTQVTVSS | high polyreactivity
39 | QVQLVESGGGLVQAGGSLRLSCAASGFIFRRYTMGWYRQAPGKERELVATITRSVNTDYADSVKGRFTISRDNAKNTVYLQMNSLKPEDTAVYYCAARKYYYFPVAYDYWGQGTQVTVSS | high polyreactivity
40 | QVQLVESGGGLVQAGGSLRLSCAASGFIFRRYVMGWYRQAPGKERELVAAISNGGGRTYYADSVKGRFTISRDNAKNTVYLQMNSQKPEDTAVYYCAAYPRGPLAPDYDYWGQGTQVSVSS | high polyreactivity
41 | QVQLVESGGGLVQAGGSLRLSCAASGFIFRSYAMGWYRQAPGKERELVAAISDGGGSTYYADSVKGRFTISRDNAKKTVYLQMNSLKPEDTAVYYCNAVYHPKGPSGYGYWGQGTQVTVSS | low polyreactivity
42 | QVQLVESGGGLVQAGGSLRLSCAASGFIFRSYAMGWYRQAPGKERELVAAISFSGGRTYYADSVKGRFTISRDNAKNTVYLQMNSLKPEDTAVYYCAAVPARIGVVLHIYTDSHYDYWGQGTQVTVSS | low polyreactivity
43 | QVQLVESGGGLVQAGGSLRLSCAASGFIFRSYAMGWYRQAPGKERELVAAITKSGGRTYYADSVKGRFTISRDNAKNTVYLQMNSLKPEDSAVYYCAADQTSYSTSRRYDYWGQGTQVTVSS | high polyreactivity
